Experimental data as given in patent publication US20250222125A1, “Anti-FGFR2b Antibodies, Conjugates and Methods of Use” (BeiGene, Ltd., priority 2024, published 2025).
Where two headings read alike, the source gives them in different places.

What was measured:
[1] = biological target: mouse FGFR2b on cells (mouse) (UniProt P21803); assay: flow cytometry, murine FGFR2b OE cells
[2] = biological target: human FGFR2b protein (recombinant, coated on ELISA plates) (human) (UniProt P21802); assay: ELISA, plate-coated human FGFR2b
[3] = biological target: human FGFR2c on cells (human) (UniProt P21802); assay: flow cytometry, human FGFR2c OE cells
[4] = biological target: human FGFR2c protein (recombinant, coated on ELISA plates) (human) (UniProt P21802); assay: ELISA, plate-coated human FGFR2c
[5] = biological target: soluble human FGFR2b protein (his tag, in-house generated) (human) (UniProt P21802); assay: SPR (Biacore 8K), antibody captured by anti-human Fc, soluble human FGFR2b-his as analyte
[6] = biological target: human FGFR2b on cells (human) (UniProt P21802); assay: flow cytometry, human FGFR2b OE cells
[7] = biological target: mouse FGFR2b on cells (mouse) (UniProt P21803); assay: flow cytometry, Expi293 cells overexpressing mouse FGFR2b
[8] = biological target: soluble human FGFR2b protein (his tag, in-house generated) (human) (UniProt P21802); assay: SPR, antibody captured by anti-human Fc, human FGFR2b
[9] = biological target: human FGFR2c on cells (human) (UniProt P21802); assay: flow cytometry, Expi293 cells overexpressing human FGFR2c
[10] = biological target: human FGFR2b on cells (human) (UniProt P21802); assay: flow cytometry, Expi293 cells overexpressing human FGFR2b
[11] = biological target: human FGFR2b protein (recombinant, coated on ELISA plates) (human) (UniProt P21802); assay: ELISA, plate-coated human FGFR2b; remark: listed apart in the source

Chain of human FGFR2b on cells (human) (P21802 other isoform, or with tags, fused parts or gaps limits assumed): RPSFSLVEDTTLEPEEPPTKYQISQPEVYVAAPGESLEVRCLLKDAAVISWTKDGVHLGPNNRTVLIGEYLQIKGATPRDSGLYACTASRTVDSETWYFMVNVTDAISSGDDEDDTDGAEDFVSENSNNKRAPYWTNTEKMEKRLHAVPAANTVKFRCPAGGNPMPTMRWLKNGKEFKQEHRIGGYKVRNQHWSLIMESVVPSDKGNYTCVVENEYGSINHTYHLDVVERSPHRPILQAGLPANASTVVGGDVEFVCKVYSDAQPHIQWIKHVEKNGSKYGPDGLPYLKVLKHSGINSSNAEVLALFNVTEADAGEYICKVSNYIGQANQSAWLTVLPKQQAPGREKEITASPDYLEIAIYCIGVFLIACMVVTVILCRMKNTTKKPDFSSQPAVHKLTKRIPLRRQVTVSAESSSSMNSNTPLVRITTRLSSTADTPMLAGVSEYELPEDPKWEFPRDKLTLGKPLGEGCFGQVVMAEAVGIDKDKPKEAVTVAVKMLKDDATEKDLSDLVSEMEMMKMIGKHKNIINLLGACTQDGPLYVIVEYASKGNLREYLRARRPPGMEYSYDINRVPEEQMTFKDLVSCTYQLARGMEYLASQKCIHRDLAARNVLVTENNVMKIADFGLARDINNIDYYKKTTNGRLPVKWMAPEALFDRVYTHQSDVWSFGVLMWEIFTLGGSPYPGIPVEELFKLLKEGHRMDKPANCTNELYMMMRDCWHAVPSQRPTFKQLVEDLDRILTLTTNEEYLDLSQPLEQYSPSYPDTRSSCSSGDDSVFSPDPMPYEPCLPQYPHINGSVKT
Chain of soluble human FGFR2b protein (his tag, in-house generated) (human) (P21802 other isoform, or with tags, fused parts or gaps limits assumed): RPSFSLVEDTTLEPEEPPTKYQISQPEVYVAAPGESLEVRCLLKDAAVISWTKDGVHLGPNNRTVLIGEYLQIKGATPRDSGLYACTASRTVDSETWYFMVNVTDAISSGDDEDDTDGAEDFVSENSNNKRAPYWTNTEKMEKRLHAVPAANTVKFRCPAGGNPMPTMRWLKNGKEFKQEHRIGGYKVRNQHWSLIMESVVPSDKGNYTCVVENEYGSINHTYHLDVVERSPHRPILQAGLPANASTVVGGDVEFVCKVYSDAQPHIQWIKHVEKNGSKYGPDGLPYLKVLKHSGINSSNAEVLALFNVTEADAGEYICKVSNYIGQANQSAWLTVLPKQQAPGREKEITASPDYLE
Chain of human FGFR2c on cells (human) (P21802 22-821): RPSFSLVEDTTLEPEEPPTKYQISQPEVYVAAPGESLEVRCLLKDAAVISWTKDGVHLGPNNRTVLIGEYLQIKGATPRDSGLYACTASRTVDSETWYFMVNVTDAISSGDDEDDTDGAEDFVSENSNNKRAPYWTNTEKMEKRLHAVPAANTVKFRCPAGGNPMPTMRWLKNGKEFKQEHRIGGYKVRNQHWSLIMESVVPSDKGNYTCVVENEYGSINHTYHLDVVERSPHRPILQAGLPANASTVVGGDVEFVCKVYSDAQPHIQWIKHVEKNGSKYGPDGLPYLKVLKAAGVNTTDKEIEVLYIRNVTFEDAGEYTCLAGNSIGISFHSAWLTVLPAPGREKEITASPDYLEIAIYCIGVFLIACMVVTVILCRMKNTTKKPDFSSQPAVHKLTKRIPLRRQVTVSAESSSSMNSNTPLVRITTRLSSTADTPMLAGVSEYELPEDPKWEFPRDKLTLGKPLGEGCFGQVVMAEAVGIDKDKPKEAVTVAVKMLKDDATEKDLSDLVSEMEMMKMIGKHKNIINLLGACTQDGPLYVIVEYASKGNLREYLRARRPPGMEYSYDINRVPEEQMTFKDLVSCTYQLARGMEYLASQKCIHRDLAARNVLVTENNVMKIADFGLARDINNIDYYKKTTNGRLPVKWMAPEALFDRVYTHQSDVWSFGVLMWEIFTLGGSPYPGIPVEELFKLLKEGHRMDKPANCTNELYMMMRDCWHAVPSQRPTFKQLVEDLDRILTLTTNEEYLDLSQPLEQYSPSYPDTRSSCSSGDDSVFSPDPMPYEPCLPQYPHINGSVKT

EC50 [1]	EC50 [2]	Emax (OD450) [2]	Emax (MFI) [3]	Emax (OD450) [4]	Kd [5]	koff [5]	kon [5]	EC50 [6]	EC50 [7]	Emax (MFI) [7]	Kd [8]	koff [8]	kon [8]	Emax (A450) [4]	Emax (MFI) [9]	EC50 [10]	Emax (MFI) [10]	EC50 [11]	Emax (A450) [11]	Binder
0.81 nM	0.61 nM	2.62 OD450	40 MFI	0.09 OD450	22.2 nM	0.00232 s⁻¹	104000 M⁻¹ s⁻¹	0.48 nM	–	–	–	–	–	–	–	–	–	–	–	BGA1421 (antibody, human IgG1, kappa, V domains shown) VH: QVQLVQSGAEVKKPGSSVKVSCKASGYIFTTYNVHWVRQAPGQGLEWIGSIYPDNGDTSYNQNFKGRATITADKSTSTAYMELSSLRSEDTAVYYCARGDFAYWGQGTLVTVSS VL: DIQMTQSPSSLSASVGDRVTITCKASQGVSNDVAWYQQKPGKAPKLLIYSASYRYTGVPSRFSGSGSGTDFTFTISSLQPEDIATYYCQQHSTTPYTFGQGTKLEIKR
–	–	–	–	–	13.9 nM	0.00112 s⁻¹	80600 M⁻¹ s⁻¹	–	4.25 nM	5.15e+06 MFI	21.8 nM	0.00178 s⁻¹	81600 M⁻¹ s⁻¹	0.086 A450	21700 MFI	3.29 nM	2.98e+06 MFI	0.0518 nM	2.99 A450	BGAh9179 (antibody, human IgG1, kappa, V domains shown) VH: QVQLVQSGAEVKKPGASVKVSCKASGYTITDTYIHWVRQAPGQGLEWMGRIDPAEGNTMFASEFQGRVTMTADTSTSTVYMELSSLRSEDTAVYYCARSKIHYDYDEGFAYWGQGTLVTVSS VL: DIVLTQSPDSLAVSLGERATINCRASESVDDYGYSFLHWYQQKPGQPPKLLIYRASNLESGVPDRFSGSGSGTDFTLTISSLQAEDVAVYYCQQSNQNPRTFGGGTKVEIKR
1.59 nM	0.26 nM	3.37 OD450	36 MFI	0.07 OD450	24.7 nM	0.00189 s⁻¹	76600 M⁻¹ s⁻¹	1.84 nM	2.67 nM	5.1e+06 MFI	37.3 nM	0.003 s⁻¹	80500 M⁻¹ s⁻¹	0.13 A450	23800 MFI	2.4 nM	3.08e+06 MFI	0.031 nM	2.94 A450	BGAh9239 (antibody, human IgG1, kappa, V domains shown) VH: QVQLVQSGAEVKKPGSSVKVSCKASGYTFSIYWLNWVRQAPGQGLEWMGQIYPENADTNYSGKFKGRVTITADKSTSTAYMELSSLRSEDTAVYFCARGGFDYWGQGTLVTVSS VL: DIQMTQSPSSLSASVGDRVTITCRASENIYSNLAWYQQKPGKAPKLLIYTATNLAEGVPSRFSGSGSGTDFTLTISSLQPEDFATYYCQHFYGILYTFGQGTRLEIKR
–	–	–	–	–	–	–	–	–	3.37 nM	5.19e+06 MFI	24.2 nM	0.00185 s⁻¹	76300 M⁻¹ s⁻¹	0.116 A450	22600 MFI	2.12 nM	3.09e+06 MFI	0.0442 nM	2.95 A450	BGAm1823 (antibody, V domains shown) VH: EVQLQQSGAELVKPGASVKISCKASGYAFSIYWMNWVKQRPGKGLEWIGQIYPENGDTNYNGKFKGKATLTADKSSSTAYMHLSSLTSEDSAVYFCARGGFDYWGQGTTLTVSS VL: NIVMTQSPASLSASVGETVTITCRASENIYSNLAWYQQKQGKSPQLLVYTATNLADGVPSRFSGSGSGTQFSLKINSLQPEDFGSYYCQHFYGILYTFGSGTRLEIK
1.78 nM	0.19 nM	3.35 OD450	33 MFI	0.07 OD450	–	–	–	1.25 nM	3.5 nM	4.98e+06 MFI	16.3 nM	0.00119 s⁻¹	72900 M⁻¹ s⁻¹	0.204 A450	23100 MFI	1.5 nM	3.05e+06 MFI	0.0309 nM	3.01 A450	BGAm1371 (antibody, V domains shown) VH: QVQLKQSGAELVKPGASVKLSCTASGFNIKDTYIHWVKQRPEQGLEWIGRIDPANGNTMFASEFQGKATITAYTSSNTAYMQLSSLTSGDTAVYYCARSKIHYDYDEGFAYWGQGTLVTVSS VL: NIVLTQSPPSLAVSLGQRATVSCRASESVDDYGYSFLHWYQQKPGQPPKLLIYRASNLESGIPARFSGSGSRTDFTLTINPVETDDVATYYCQQSNQNPRTFGGGTKLEIK
